According to US20120149028A1 (LUDWIG MAXIMILIANS UNIVERSITAT M NCHEN, published 2012):

Biological target: T1, endogenous PCNA (proliferating cell nuclear antigen) in HeLa cells (human (endogenous in HeLa cells), UniProt P12004 1-261)
T1 construct: whole, on cells; Intracellular (nuclear) endogenous protein in living or fixed HeLa cells, not on the surface
Assay: GFP fusion expressed in HeLa cells, epifluorescence microscopy
Protocol: First, it was investigated, whether transiently expressed PCNA3p16-GFP colocalizes with RFP-PCNA or HcRedLigase, another S phase marker. To do so, HeLa cells were seeded on coverslips and transiently double transfected with expression vectors coding for RFP-PCNA or HcRed-Ligase and vector coding for PCNA-Chromobody PCNA3p16-GFP. 24 h after transfection cells were fixed in 4% PFA for 15 minutes at room temperature, permeabilized with 0,2% Triton-X-100 in PBS and the DNA was counterstained with DAPI. Slides were mounted in VectaShield and further analyzed by epifluorescence microscopy with appropriate filtersets for DAPI (D360_{—}40X/HQ460_{—}40M), GFP (HQ480_{—}40X/HQ535_{—}50M) and red fluorescent proteins (HQ565_{—}30X/HQ620_{—}60M) and an 63X/1.3 NA Plan Apo oil objective. As expected, RFP-PCNA as well as HcRed-Ligase localized to DNA replication sites in the nucleus of the cells. In both cases a colocalization of RFP-PCNA and HcRed-Ligase with the Chromobody PCNA3p16-GFP was detected (FIG. 3 A). […]
To confirm that PCNA3p16-GFP recognizes endogenous PCNA located at active DNA replication sites, an antibody staining against PCNA and a BrdU pulse-chase experiment were performed. […] The primary anti-PCNA antibody (clone 16D10) (1:400) was detected by a secondary antibody coupled to the fluorescent dye Alexa568. […]

T1 sequence (P12004 whole entry): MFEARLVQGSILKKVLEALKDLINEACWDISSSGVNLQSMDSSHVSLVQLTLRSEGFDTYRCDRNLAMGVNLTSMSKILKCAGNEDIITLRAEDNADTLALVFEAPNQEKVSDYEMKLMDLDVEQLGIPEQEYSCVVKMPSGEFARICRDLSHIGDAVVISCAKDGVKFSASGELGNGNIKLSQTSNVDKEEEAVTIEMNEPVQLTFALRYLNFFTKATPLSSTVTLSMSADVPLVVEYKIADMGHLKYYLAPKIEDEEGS

binding result: binds
B1: variant PCNA-Chromobody of SEQ ID NO 18 fused to GFP (VHH)
VHH: NVQLNESGGGLVQPGGSLRLSCAASGFTFSSYAMSWVRQAPGKGLEWVSEISPSGAVKAYSDSVKGRFTISRDNAKNRLYLQMNSLTPEDTGEYFCTKVQSPRTRIPAPSSQGTQVTVSS
notes: Expressed in HeLa cells as a GFP fusion; not shown: linker and GFP
